Experimental data reported in US20240270874A1.

How the values were obtained:
Experiment in all cases: cell-based or functional assay
[1] = target: human FGFR1c on cells (human) (UniProt P11362)
[2] = target: human KLB&FGFR1c complex on cells (human) (UniProt Q86Z14)
[3] = target: human KLB & human FGFR3c on L6 cells (human) (UniProt Q86Z14)
[4] = target: human KLB & human FGFR4 on L6 cells (human) (UniProt Q86Z14)
Sequence of human KLB & human FGFR4 on L6 cells (human) (Q86Z14 whole entry, chain 1 of 2): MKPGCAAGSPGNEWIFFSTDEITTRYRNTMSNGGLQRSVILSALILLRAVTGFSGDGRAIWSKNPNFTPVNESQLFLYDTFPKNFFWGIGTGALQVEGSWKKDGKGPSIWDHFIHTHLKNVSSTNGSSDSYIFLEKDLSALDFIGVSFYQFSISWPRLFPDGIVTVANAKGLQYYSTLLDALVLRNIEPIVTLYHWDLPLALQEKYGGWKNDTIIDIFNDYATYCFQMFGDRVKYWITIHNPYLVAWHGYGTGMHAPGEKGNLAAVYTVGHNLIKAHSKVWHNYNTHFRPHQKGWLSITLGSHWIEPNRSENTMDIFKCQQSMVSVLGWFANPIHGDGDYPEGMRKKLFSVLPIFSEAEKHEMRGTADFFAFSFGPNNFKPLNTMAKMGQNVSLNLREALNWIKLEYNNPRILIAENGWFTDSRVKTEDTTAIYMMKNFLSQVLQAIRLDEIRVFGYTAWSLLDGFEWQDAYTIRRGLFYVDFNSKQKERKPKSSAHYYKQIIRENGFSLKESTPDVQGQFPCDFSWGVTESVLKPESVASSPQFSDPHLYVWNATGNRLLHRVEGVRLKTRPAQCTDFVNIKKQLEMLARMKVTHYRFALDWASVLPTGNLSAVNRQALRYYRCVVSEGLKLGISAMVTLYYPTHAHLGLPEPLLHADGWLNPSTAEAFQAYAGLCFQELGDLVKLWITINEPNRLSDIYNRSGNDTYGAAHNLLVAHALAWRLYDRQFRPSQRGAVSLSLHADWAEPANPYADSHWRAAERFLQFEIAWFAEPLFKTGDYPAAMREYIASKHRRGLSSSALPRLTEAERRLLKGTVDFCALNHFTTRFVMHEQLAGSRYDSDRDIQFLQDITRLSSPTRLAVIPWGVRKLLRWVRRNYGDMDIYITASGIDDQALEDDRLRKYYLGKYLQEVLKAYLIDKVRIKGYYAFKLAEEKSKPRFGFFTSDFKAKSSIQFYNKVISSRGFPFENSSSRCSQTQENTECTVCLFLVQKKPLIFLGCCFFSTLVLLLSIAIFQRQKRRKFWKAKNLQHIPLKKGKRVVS
Sequence of human KLB & human FGFR4 on L6 cells (human) (P22455 22-802, chain 2 of 2, further chain): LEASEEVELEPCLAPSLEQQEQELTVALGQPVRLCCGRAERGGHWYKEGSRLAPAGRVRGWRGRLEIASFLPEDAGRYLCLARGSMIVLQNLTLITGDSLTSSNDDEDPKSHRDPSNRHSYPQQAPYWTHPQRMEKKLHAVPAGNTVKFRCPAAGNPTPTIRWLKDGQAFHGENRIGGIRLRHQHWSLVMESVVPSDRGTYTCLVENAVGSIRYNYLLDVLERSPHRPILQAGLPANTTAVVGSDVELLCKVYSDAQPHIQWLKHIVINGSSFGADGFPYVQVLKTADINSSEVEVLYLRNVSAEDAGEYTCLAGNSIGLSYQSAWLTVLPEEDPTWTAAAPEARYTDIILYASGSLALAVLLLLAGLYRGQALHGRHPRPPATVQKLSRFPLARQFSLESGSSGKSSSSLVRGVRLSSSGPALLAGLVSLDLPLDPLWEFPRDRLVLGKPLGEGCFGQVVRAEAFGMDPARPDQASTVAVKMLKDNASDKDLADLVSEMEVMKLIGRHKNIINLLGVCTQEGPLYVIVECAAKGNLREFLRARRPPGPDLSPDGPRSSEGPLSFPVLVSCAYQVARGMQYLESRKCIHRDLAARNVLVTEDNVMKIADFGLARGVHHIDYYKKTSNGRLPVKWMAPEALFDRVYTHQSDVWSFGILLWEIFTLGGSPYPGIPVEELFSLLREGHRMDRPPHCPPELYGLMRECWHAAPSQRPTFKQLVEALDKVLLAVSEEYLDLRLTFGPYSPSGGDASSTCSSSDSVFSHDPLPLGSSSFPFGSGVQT

Sequence of human KLB&FGFR1c complex on cells (human) (Q86Z14 whole entry, chain 1 of 2): as the sequence (Q86Z14 whole entry, chain 1 of 2) above
Sequence of human KLB&FGFR1c complex on cells (human) (P11362 22-822, chain 2 of 2, further chain): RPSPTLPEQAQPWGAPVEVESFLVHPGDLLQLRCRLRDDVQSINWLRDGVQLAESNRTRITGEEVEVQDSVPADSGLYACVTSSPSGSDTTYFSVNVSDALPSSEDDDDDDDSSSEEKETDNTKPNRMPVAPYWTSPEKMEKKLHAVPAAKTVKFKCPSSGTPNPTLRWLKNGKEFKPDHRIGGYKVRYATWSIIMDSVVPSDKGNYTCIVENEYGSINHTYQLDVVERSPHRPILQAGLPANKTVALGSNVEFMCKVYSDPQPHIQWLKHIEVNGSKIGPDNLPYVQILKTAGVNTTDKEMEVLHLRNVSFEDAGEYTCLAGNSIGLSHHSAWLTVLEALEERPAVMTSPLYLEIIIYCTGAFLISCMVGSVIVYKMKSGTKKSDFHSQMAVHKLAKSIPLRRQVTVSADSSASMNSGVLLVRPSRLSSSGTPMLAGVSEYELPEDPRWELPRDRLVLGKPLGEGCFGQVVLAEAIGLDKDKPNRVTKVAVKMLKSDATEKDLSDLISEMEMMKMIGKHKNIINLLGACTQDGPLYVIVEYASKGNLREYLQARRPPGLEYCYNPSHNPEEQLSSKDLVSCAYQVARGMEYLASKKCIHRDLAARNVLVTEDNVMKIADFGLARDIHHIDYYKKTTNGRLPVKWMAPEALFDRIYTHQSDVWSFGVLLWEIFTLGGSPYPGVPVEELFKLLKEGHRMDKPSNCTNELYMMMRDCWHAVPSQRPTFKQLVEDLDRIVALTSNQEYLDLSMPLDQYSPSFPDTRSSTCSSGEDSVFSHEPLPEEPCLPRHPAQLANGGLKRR
Sequence of human KLB & human FGFR3c on L6 cells (human) (Q86Z14 whole entry, chain 1 of 2): as the sequence (Q86Z14 whole entry, chain 1 of 2) above
Sequence of human KLB & human FGFR3c on L6 cells (human) (P22607 23-806, chain 2 of 2, further chain): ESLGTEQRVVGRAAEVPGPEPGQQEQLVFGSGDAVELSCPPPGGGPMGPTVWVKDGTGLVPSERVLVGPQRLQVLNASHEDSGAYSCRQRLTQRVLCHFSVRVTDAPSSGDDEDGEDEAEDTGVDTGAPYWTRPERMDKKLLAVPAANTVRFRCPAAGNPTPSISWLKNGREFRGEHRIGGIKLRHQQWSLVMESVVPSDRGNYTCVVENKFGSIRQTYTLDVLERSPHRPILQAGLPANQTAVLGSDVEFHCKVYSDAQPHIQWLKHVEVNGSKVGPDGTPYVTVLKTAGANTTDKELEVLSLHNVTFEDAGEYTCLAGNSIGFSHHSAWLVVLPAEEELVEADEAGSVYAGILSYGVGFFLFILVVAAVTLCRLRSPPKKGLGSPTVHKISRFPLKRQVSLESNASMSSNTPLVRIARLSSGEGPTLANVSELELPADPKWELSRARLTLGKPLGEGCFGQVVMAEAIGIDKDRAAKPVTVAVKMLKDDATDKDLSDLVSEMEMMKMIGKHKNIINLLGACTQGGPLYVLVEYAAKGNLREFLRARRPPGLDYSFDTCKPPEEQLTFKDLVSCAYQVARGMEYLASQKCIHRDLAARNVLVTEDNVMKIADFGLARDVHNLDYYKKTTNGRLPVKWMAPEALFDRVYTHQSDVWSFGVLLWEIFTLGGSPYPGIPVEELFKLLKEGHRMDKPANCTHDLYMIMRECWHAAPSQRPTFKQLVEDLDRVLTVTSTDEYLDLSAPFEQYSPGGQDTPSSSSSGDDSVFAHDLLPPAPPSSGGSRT
Sequence of human FGFR1c on cells (human) (P11362 22-822): as the sequence (P11362 22-822, chain 2 of 2, further chain) above

FGF2 (Sino Biological, 10014-HNAE) (from UniProt P09038 143-288) (ligand)
Activation fold, SRE-Luc2P reporter in HEK293-hFGFR1c cells [1]: 11.6 fold

MK3655 (antibody)
Activation fold, GAL4-Elk1 luciferase reporter in CHOK1-hKLB&hFGFR1c cells [2]: 5.62 fold | Activation fold, SRE-Luc2P reporter in HEK293T-hKLB&hFGFR1c cells [2]: 1.65 fold | EC50 (nM), GAL4-Elk1 luciferase reporter in CHOK1-hKLB&hFGFR1c cells [2]: 0.64 nM | EC50 (nM), SRE-Luc2P reporter in HEK293T-hKLB&hFGFR1c cells [2]: 5.06 nM

AKR001 (ligand)
Activation fold, pERK/total ERK in L6-hKLB&hFGFR3c cells [3]: 10.2 fold | Activation fold, pERK/total ERK in L6-hKLB&hFGFR4 cells [4]: 2.11 fold
